T1: human FcγRIIb receptor protein (R&D Systems) (human, UniProt P31994 46-217)
T1 construct: Bought protein injected over captured antibody in Biacore; also called CD32b
T1 sequence (looked up): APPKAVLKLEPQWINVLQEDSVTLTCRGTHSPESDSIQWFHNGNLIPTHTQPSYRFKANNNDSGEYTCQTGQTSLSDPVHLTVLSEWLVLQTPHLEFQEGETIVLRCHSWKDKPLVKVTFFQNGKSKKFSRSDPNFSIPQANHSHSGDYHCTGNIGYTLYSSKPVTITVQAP

T2: cynoFcγRIIb (Macaca fascicularis, UniProt A0A140HDP4)
T2 construct: extracellular region, C-terminal His- and GST-tag; also called cynomolgus monkey FcγRIIb
T2 sequence (receptor extracellular region): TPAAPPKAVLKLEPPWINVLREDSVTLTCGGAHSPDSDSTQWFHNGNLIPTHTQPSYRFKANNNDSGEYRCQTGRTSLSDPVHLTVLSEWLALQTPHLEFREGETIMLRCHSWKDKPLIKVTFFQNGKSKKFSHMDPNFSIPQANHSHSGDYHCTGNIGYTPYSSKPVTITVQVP

T3: mFcγRIIb (Mus musculus, UniProt P08101)
T3 construct: extracellular region, C-terminal His- and GST-tag; also called mouse FcγRII
T3 sequence (receptor extracellular region, looked up): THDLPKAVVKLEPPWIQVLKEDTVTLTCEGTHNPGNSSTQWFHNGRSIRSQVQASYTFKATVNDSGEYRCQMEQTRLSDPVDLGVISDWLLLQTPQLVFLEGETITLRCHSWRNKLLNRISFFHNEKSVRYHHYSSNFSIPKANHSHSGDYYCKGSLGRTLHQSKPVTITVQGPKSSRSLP


Legend:
Experiment in all cases: SPR
[1] = molecular target: T1, human FcγRIIb receptor protein (R&D …)
[2] = molecular target: T2, cynoFcγRIIb
Experimental: (§1) Variants were screened for receptor affinity using Biacore™ technology, also referred to as Biacore herein, a surface plasmon resonance (SPR) based technology for studying biomolecular interactions in real time. SPR measurements were performed using a Biacore 3000 instrument (Biacore, Piscataway, N.J.). A protein A/G (Pierce Biotechnology) CM5 biosensor chip (Biacore) was generated using a standard primary amine coupling protocol. All measurements were performed using HBS-EP buffer (10 mM HEPES pH 7.4, 0.15 M NaCl, 3 mM EDTA, 0.005% vol/vol surfactant P20, Biacore). Antibodies at 20 nM or 50 nM in HBS-EP buffer were immobilized on the protein A/G surface and FcγRs were injected. After each cycle, the surface was regenerated by injecting glycine buffer (10 mM, pH 1.5). Data were processed by zeroing time and response before the injection of FcγR and by subtracting appropriate nonspecific signals (response of reference channel and injection of running buffer). Kinetic analyses were performed by global fitting of binding data with a 1:1 Langmuir binding model using BIAevaluation software (Biacore).
(§2) Variant antibodies were tested for their affinity to mouse or cynologous monkey FcγRs using Biacore SPR as described above. Specifically, antibodies were first immobilized on a protein A/G chip to high density, and then followed by injections of the extracellular domain of the mouse or cynologous monkey FcγR of interest. Both association and dissociation phases were tracked in real time using the Biacore technology.

[3] = molecular target: T3, mFcγRIIb
Experimental: as §1, §2

Fold vs WT IgG1 [1] [fold] | Kd [1] [nM] | Fold vs WT IgG1 (Kd) [2] [fold] | Fold vs WT IgG1 (Kd) [3] [fold] | binding result [1] | Binder
10.7 | 137 | 3.26 | 32.4 | – | S267A/H268D/L328Y (antibody, human IgG1, kappa, HuAM4G7 anti-CD19 IgG1 (m1) with these Fc substitutions, EU index; copies: 2 + 2) heavy: EVQLVESGGGLVKPGGSLKLSCAASGYTFTSYVMHWVRQAPGKGLEWIGYINPYNDGTKYNEKFQGRVTISSDKSISTAYMELSSLRSEDTAMYYCARGTYYYGTRVFDYWGQGTLVTVSSASTKGPSVFPLAPSSKSTSGGTAALGCLVKDYFPEPVTVSWNSGALTSGVHTFPAVLQSSGLYSLSSVVTVPSSSLGTQTYICNVNHKPSNTKVDKKVEPKSCDKTHTCPPCPAPELLGGPSVFLFPPKPKDTLMISRTPEVTCVVVDVADEDPEVKFNWYVDGVEVHNAKTKPREEQYNSTYRVVSVLTVLHQDWLNGKEYKCKVSNKAYPAPIEKTISKAKGQPREPQVYTLPPSREEMTKNQVSLTCLVKGFYPSDIAVEWESNGQPENNYKTTPPVLDSDGSFFLYSKLTVDKSRWQQGNVFSCSVMHEALHNHYTQKSLSLSPGK light: DIVMTQSPATLSLSPGERATLSCRSSKSLQNVNGNTYLYWFQQKPGQSPQLLIYRMSNLNSGVPDRFSGSGSGTEFTLTISSLEPEDFAVYYCMQHLEYPITFGAGTKLEIKRTVAAPSVFIFPPSDEQLKSGTASVVCLLNNFYPREAKVQWKVDNALQSGNSQESVTEQDSKDSTYSLSSTLTLSKADYEKHKVYACEVTHQGLSSPVTKSFNRGEC
13.5 | 109 | 3.65 | 2.63 | – | S267A/L328Y/I332E (antibody, human IgG1, kappa, HuAM4G7 anti-CD19 IgG1 (m1) with these Fc substitutions, EU index; copies: 2 + 2) heavy: EVQLVESGGGLVKPGGSLKLSCAASGYTFTSYVMHWVRQAPGKGLEWIGYINPYNDGTKYNEKFQGRVTISSDKSISTAYMELSSLRSEDTAMYYCARGTYYYGTRVFDYWGQGTLVTVSSASTKGPSVFPLAPSSKSTSGGTAALGCLVKDYFPEPVTVSWNSGALTSGVHTFPAVLQSSGLYSLSSVVTVPSSSLGTQTYICNVNHKPSNTKVDKKVEPKSCDKTHTCPPCPAPELLGGPSVFLFPPKPKDTLMISRTPEVTCVVVDVAHEDPEVKFNWYVDGVEVHNAKTKPREEQYNSTYRVVSVLTVLHQDWLNGKEYKCKVSNKAYPAPEEKTISKAKGQPREPQVYTLPPSREEMTKNQVSLTCLVKGFYPSDIAVEWESNGQPENNYKTTPPVLDSDGSFFLYSKLTVDKSRWQQGNVFSCSVMHEALHNHYTQKSLSLSPGK light: DIVMTQSPATLSLSPGERATLSCRSSKSLQNVNGNTYLYWFQQKPGQSPQLLIYRMSNLNSGVPDRFSGSGSGTEFTLTISSLEPEDFAVYYCMQHLEYPITFGAGTKLEIKRTVAAPSVFIFPPSDEQLKSGTASVVCLLNNFYPREAKVQWKVDNALQSGNSQESVTEQDSKDSTYSLSSTLTLSKADYEKHKVYACEVTHQGLSSPVTKSFNRGEC
1.55 | 947 | 2.02 | 0.296 | – | A330K (antibody, human IgG1, kappa, HuAM4G7 anti-CD19 IgG1 (m1) with this Fc substitution, EU index; copies: 2 + 2) heavy: not shown light: DIVMTQSPATLSLSPGERATLSCRSSKSLQNVNGNTYLYWFQQKPGQSPQLLIYRMSNLNSGVPDRFSGSGSGTEFTLTISSLEPEDFAVYYCMQHLEYPITFGAGTKLEIKRTVAAPSVFIFPPSDEQLKSGTASVVCLLNNFYPREAKVQWKVDNALQSGNSQESVTEQDSKDSTYSLSSTLTLSKADYEKHKVYACEVTHQGLSSPVTKSFNRGEC
0.0635 | 23100 | 0.255 | 0.054 | – | A330S (antibody, human IgG1, kappa, HuAM4G7 anti-CD19 IgG1 (m1) with this Fc substitution, EU index; copies: 2 + 2) heavy: not shown light: DIVMTQSPATLSLSPGERATLSCRSSKSLQNVNGNTYLYWFQQKPGQSPQLLIYRMSNLNSGVPDRFSGSGSGTEFTLTISSLEPEDFAVYYCMQHLEYPITFGAGTKLEIKRTVAAPSVFIFPPSDEQLKSGTASVVCLLNNFYPREAKVQWKVDNALQSGNSQESVTEQDSKDSTYSLSSTLTLSKADYEKHKVYACEVTHQGLSSPVTKSFNRGEC
4.89 | 300 | 4.08 | 1.28 | – | H268D/L328Y/I332E (antibody, human IgG1, kappa, HuAM4G7 anti-CD19 IgG1 (m1) with these Fc substitutions, EU index; copies: 2 + 2) heavy: EVQLVESGGGLVKPGGSLKLSCAASGYTFTSYVMHWVRQAPGKGLEWIGYINPYNDGTKYNEKFQGRVTISSDKSISTAYMELSSLRSEDTAMYYCARGTYYYGTRVFDYWGQGTLVTVSSASTKGPSVFPLAPSSKSTSGGTAALGCLVKDYFPEPVTVSWNSGALTSGVHTFPAVLQSSGLYSLSSVVTVPSSSLGTQTYICNVNHKPSNTKVDKKVEPKSCDKTHTCPPCPAPELLGGPSVFLFPPKPKDTLMISRTPEVTCVVVDVSDEDPEVKFNWYVDGVEVHNAKTKPREEQYNSTYRVVSVLTVLHQDWLNGKEYKCKVSNKAYPAPEEKTISKAKGQPREPQVYTLPPSREEMTKNQVSLTCLVKGFYPSDIAVEWESNGQPENNYKTTPPVLDSDGSFFLYSKLTVDKSRWQQGNVFSCSVMHEALHNHYTQKSLSLSPGK light: DIVMTQSPATLSLSPGERATLSCRSSKSLQNVNGNTYLYWFQQKPGQSPQLLIYRMSNLNSGVPDRFSGSGSGTEFTLTISSLEPEDFAVYYCMQHLEYPITFGAGTKLEIKRTVAAPSVFIFPPSDEQLKSGTASVVCLLNNFYPREAKVQWKVDNALQSGNSQESVTEQDSKDSTYSLSSTLTLSKADYEKHKVYACEVTHQGLSSPVTKSFNRGEC
18.6 | 78.9 | 9.38 | 19.4 | – | H268D/K326D/L328Y (antibody, human IgG1, kappa, HuAM4G7 anti-CD19 IgG1 (m1) with these Fc substitutions, EU index; copies: 2 + 2) heavy: EVQLVESGGGLVKPGGSLKLSCAASGYTFTSYVMHWVRQAPGKGLEWIGYINPYNDGTKYNEKFQGRVTISSDKSISTAYMELSSLRSEDTAMYYCARGTYYYGTRVFDYWGQGTLVTVSSASTKGPSVFPLAPSSKSTSGGTAALGCLVKDYFPEPVTVSWNSGALTSGVHTFPAVLQSSGLYSLSSVVTVPSSSLGTQTYICNVNHKPSNTKVDKKVEPKSCDKTHTCPPCPAPELLGGPSVFLFPPKPKDTLMISRTPEVTCVVVDVSDEDPEVKFNWYVDGVEVHNAKTKPREEQYNSTYRVVSVLTVLHQDWLNGKEYKCKVSNDAYPAPIEKTISKAKGQPREPQVYTLPPSREEMTKNQVSLTCLVKGFYPSDIAVEWESNGQPENNYKTTPPVLDSDGSFFLYSKLTVDKSRWQQGNVFSCSVMHEALHNHYTQKSLSLSPGK light: DIVMTQSPATLSLSPGERATLSCRSSKSLQNVNGNTYLYWFQQKPGQSPQLLIYRMSNLNSGVPDRFSGSGSGTEFTLTISSLEPEDFAVYYCMQHLEYPITFGAGTKLEIKRTVAAPSVFIFPPSDEQLKSGTASVVCLLNNFYPREAKVQWKVDNALQSGNSQESVTEQDSKDSTYSLSSTLTLSKADYEKHKVYACEVTHQGLSSPVTKSFNRGEC
2.31 | 636 | 1.02 | 1.24 | – | A327D/L328Y/I332E (antibody, human IgG1, kappa, HuAM4G7 anti-CD19 IgG1 (m1) with these Fc substitutions, EU index; copies: 2 + 2) heavy: EVQLVESGGGLVKPGGSLKLSCAASGYTFTSYVMHWVRQAPGKGLEWIGYINPYNDGTKYNEKFQGRVTISSDKSISTAYMELSSLRSEDTAMYYCARGTYYYGTRVFDYWGQGTLVTVSSASTKGPSVFPLAPSSKSTSGGTAALGCLVKDYFPEPVTVSWNSGALTSGVHTFPAVLQSSGLYSLSSVVTVPSSSLGTQTYICNVNHKPSNTKVDKKVEPKSCDKTHTCPPCPAPELLGGPSVFLFPPKPKDTLMISRTPEVTCVVVDVSHEDPEVKFNWYVDGVEVHNAKTKPREEQYNSTYRVVSVLTVLHQDWLNGKEYKCKVSNKDYPAPEEKTISKAKGQPREPQVYTLPPSREEMTKNQVSLTCLVKGFYPSDIAVEWESNGQPENNYKTTPPVLDSDGSFFLYSKLTVDKSRWQQGNVFSCSVMHEALHNHYTQKSLSLSPGK light: DIVMTQSPATLSLSPGERATLSCRSSKSLQNVNGNTYLYWFQQKPGQSPQLLIYRMSNLNSGVPDRFSGSGSGTEFTLTISSLEPEDFAVYYCMQHLEYPITFGAGTKLEIKRTVAAPSVFIFPPSDEQLKSGTASVVCLLNNFYPREAKVQWKVDNALQSGNSQESVTEQDSKDSTYSLSSTLTLSKADYEKHKVYACEVTHQGLSSPVTKSFNRGEC
– | – | 1.36 | 0.164 | no binding | K326A (antibody, human IgG1, kappa, HuAM4G7 anti-CD19 IgG1 (m1) with this Fc substitution, EU index; copies: 2 + 2) heavy: not shown light: DIVMTQSPATLSLSPGERATLSCRSSKSLQNVNGNTYLYWFQQKPGQSPQLLIYRMSNLNSGVPDRFSGSGSGTEFTLTISSLEPEDFAVYYCMQHLEYPITFGAGTKLEIKRTVAAPSVFIFPPSDEQLKSGTASVVCLLNNFYPREAKVQWKVDNALQSGNSQESVTEQDSKDSTYSLSSTLTLSKADYEKHKVYACEVTHQGLSSPVTKSFNRGEC
